Assays:
[1] = target: T1, human TWEAK receptor (human, UniProt Q9NP84 28-129); experiment: slide binding on transfected COS cells, I-125 anti-leucine-zipper antibody, autoradiography
T1 construct: Expressed on COS cells from an expression vector; The entry includes the signal peptide
T1 sequence: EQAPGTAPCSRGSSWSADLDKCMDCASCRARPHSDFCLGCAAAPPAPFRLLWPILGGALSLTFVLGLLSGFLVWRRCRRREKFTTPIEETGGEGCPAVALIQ
Description: (§1) Slides of COS cells were transfected with expression vectors containing TWEAKR, DR3, or vector without insert (control). After two days the cells were incubated with concentrated supernatants from CV-1 cells transfected with a vector encoding the leucine zipper TWEAK extracellular domain fusion protein. One hour later the cells were washed and probed with an I-125 labeled antibody against the leucine-zipper domain. The slides were washed, fixed, and autoradiography was performed using x-ray film. The TWEAKR transfected cells bound significant amounts of TWEAK. […] This experiment confirmed that the TWEAKR polypeptide identified in part A above, rather than DR3, is the major receptor for TWEAK. After discovery of the functional TWEAK receptor, other investigators also reported that DR3 is not the major receptor for TWEAK (Kaptein et al., FEBS Lett., 485(2-3): 135, 2000. The TWEAK-TWEAKR binding interaction was further characterized by Scatchard analysis.

[2] = target: T2, DR3 (UniProt Q93038 25-417, limits assumed); experiment: as above
T2 construct: whole, on cells; also called Apo3; WSL-1
T2 sequence (looked up): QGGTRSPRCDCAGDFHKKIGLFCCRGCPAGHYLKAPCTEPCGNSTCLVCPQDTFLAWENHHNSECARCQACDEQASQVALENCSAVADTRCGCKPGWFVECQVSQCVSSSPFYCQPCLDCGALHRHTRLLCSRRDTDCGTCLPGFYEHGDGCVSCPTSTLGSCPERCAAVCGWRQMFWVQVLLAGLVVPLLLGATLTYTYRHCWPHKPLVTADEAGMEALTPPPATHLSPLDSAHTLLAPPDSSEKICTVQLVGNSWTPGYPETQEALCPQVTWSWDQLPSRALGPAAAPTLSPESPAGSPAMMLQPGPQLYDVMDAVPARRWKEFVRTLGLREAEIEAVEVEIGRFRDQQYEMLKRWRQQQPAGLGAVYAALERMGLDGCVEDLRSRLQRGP
Description: as §1

binding result [1]: binds | binding result [2]: no binding
B1: leucine zipper TWEAK extracellular domain fusion protein (ligand)
chain: not shown
notes: Used as concentrated supernatant from transfected CV-1 cells; also called LZ-TWEAK; pDC409-LZ-TWEAK product

From patent publication US20050054047A1 (Amgen, published 2005)
